Reference: patent US20210002363A1 (PHANES THERAPEUTICS, published 2021)
Positions count from the first letter of the chain named.

Key:
[1] = molecular target: T1, Recombinant extracellular domain of human FOLR1 (Novoprotein, Cat#: C784) (human, UniProt P15328 25-233, limits assumed); assay: ELISA on plate-coated recombinant human FOLR1 extracellular domain; anti-human IgG-HRP; O.D. 450 nm
T1 construct: Bought reagent; also called recombinant FOLR1; immobilized FOLR1 extracellular domain
Protocol: The Purified chimeric mAbs were tested in an ELISA assay for their ability to bind to immobilized human FOLR1. Recombinant extracellular domain of human FOLR1 (Novoprotein, Cat#: C784) in carbonate coating buffer was coated on a 96-well plate at room temperature for 1 hour. The plate is blocked by 5% BSA in TBST for 1 hour at room temperature. In each well of an individual plate, mAbs at various concentrations were incubated for 1 hour at room temperature. The plate was washed and the binding to FOLR1 was detected by anti-human IgG conjugated to horseradish peroxidase (hIgG-HRP) (ThermoFisher Scientific, Cat#: H10007) with incubation for 1 hour at room temperature. Then after washing, the ELISA was developed using One-step Detection Solution (ThermoFisher Scientific, Cat#: 34028) and measured as the absorbance at 450 nm.

[2] = molecular target: T2, FOLR1 on SK-OV-3 cells (ATCC HTB-77) (Homo sapiens (Human), UniProt P15328 25-234); assay: FACS on SK-OV-3 cells; Alexa Fluor 488 F(ab')2 goat anti-human IgG Fc; MFI
T2 construct: Endogenous FOLR1 of the cell line; also called cells that are known to express FOLR1
Protocol: To assess the binding of the chimeric anti-FOLR1 mAbs to cells that are known to express FOLR1, SK-OV-3 (ATCC® HTB-77™) cells were plated at 80,000 cells per well on a 96-well non-binding U-bottom plate (Greiner Bio-One, Cat#: 650901). In some experiments, 90,000 cells per well were used. The cells were incubated in 50 μL FACS buffer (HBSS with 0.1% BSA and 0.05% sodium azide) containing mAbs at different concentrations on ice for 15 minutes. After wash, cells were incubated in 50 μL FACS buffer containing 3.5 μg/mL F(ab′)2-Goat anti-Human IgG Fc conjugated to Alexa Fluor® 488 (Invitrogen, Cat#: H10120) on ice for 15 minutes in dark and washed again. Cells were analyzed using an Attune NxT flow cytometer. MFI, mean fluorescence intensity.

[3] = molecular target: T1, Recombinant extracellular domain of …; assay: SPR (Biacore 8k), mAb captured on protein A chip, recombinant FOLR1 as analyte, 1:1 model
Protocol: The interaction of the chimeric anti-FOLR1 mAbs and FOLR1 was measured by Surface Plasmon Resonance (SPR) (Biacore 8k, GE Healthcare). Briefly, an anti-FOLR1 mAb was immobilized to a protein A sensor chip (GE Healthcare, Cat#: 29-1275-56) in HBS-P buffer (0.01 M HEPES pH 7.4, 0.15 M NaCl, 0.05% v/v Surfactant P20) with an injection flow rate at […]. The recombinant FOLR1 (Novoprotein, Cat#: C784) at variant concentrations was loaded with the flow rate of 30 μL/min in HBS-P buffer. Following antigen loading, the surface was regenerated with 10 mM glycine-HCl (pH 1.5). Sensor grams were fit with a 1:1 binding model using Biacore 8k evaluation software (GE Healthcare).

[4] = molecular target: T3, full-length human FOLR1 on stably transfected CHO cells (human, UniProt P15328 25-234); assay: FACS on CHO cells stably expressing full-length human FOLR1; PE goat anti-mouse IgG; MFI
T3 construct: also called CHO cells stably expressing human FOLR1
Protocol: CHO cells stably transfected with full-length human FOLR1 were transferred to a 96-well plate at 200,000 cells/well, washed once with FACS buffer (1×PBS, pH6.8+2% FBS) and incubated with purified mouse anti-FOLR1 mAbs from hybridoma supernatants at various concentrations for 15 minutes on ice. Cells were then centrifuged at 1,000 rpm for 5 minutes and washed with FACS buffer three times. The cells were incubated with PE-conjugated goat anti-mouse IgG polyclonal antibodies and incubated on ice for another 15 minutes. Cells were then washed with FACS buffer three times and then resuspended in FACS buffer containing 0.1 μg/ml PI (propidium iodide) for live/dead cell gating. Cells were then run through the FACS Caliber instrument and the data were analyzed by the Flowjo software. MFI, mean fluorescence intensity.

[5] = molecular target: T2, FOLR1 on SK-OV-3 cells (ATCC HTB-77); assay: FACS on SK-OV-3 cells; MFI
[6] = molecular target: T1, Recombinant extracellular domain of …; assay: ELISA on immobilized FOLR1 extracellular domain; O.D. 450 nm
[7] = molecular target: T1, Recombinant extracellular domain of …; assay: as above; remark: listed apart in the source

T3 sequence (P15328 25-234 limits assumed): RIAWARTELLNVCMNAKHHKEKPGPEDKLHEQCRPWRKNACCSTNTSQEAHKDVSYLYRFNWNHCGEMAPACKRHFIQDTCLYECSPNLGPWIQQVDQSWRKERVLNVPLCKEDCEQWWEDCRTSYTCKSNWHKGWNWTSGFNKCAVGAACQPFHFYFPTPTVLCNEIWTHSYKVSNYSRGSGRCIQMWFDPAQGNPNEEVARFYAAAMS
T2 sequence (P15328 25-234 limits assumed): as above
T1 sequence (P15328 25-233 limits assumed): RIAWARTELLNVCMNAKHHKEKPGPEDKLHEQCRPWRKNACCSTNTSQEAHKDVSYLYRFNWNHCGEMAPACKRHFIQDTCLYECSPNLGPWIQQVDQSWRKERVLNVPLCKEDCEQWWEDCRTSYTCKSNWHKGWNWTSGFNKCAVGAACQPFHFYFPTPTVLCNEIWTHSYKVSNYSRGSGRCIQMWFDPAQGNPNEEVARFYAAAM

B1: chimeric anti-FOLR1 mAb F4 (antibody, V domains shown)
VH: EVQLVESGGGLVKPGGSLKLSCAASGFTFSDYGMHWVRQAPEKGLEWVAFISSGSNTIYYADIVKGRFAISRDNAKNTLFLQMASLRSEDTALYYCARLAEWDVAYWGQGTLVTVSA
VL: DIVLTQSPATLSVTPGDRISLSCRASQNINNNLHWYQQKSHESPRLLIKFASQSISGIPSRFSGSGSGTDFTLNINGVETEDFGMYFCQQIYSWPQLTFGAGTRLELK
notes: also called Chimeric mAb F4
- EC50 (read off the curve) [1]: ~0.2 nM
- EC50 (read off the curve) [2]: ~0.5 nM
- Kd [3]: 0.547 nM

B2: mouse anti-FOLR1 mAb F4 (purified from hybridoma supernatant) (antibody, V domains shown)
VH: B1 VH
VL: B1 VL
notes: Mouse antibody from hybridoma, purified on Protein A, detected with anti-mouse IgG; also called mAb clone F4
- EC50 (read off the curve) [4]: ~1 µg/mL

B3: chimeric anti-FOLR1 mAb F20 (antibody, V domains shown)
VH: QVQLQQSGAELVKPGASVQLSCKASGYTFASYYLYWVKQRPGQGLEWIGEINPRSGGTNFNEKFKSKATVTVDKSSSTAYMQLSSLTSEDSAVYYCSRSGRLRGFYTMDYWGQGTSVTVSS
VL: NIVMTQSPKSMSVSVGERVTLSCKAGENVGSYVSWYQQKPEQSPELLIYGASNRYTGVPDRFTGSGSATDFTLTISSVQAEDLADYYCGQTYRFLTFGAGTKLELK
notes: also called Chimeric mAb F20
- Kd [3]: 1 nM

B4: chimeric anti-FOLR1 mAb F19 (antibody, V domains shown)
VH: EVKLDETGGGLVQPGRPMKLSCVASGFTFSDYWMNWVRQSPDKGLEWVAQIGNKFHNYETYYSDSVKGRFTISRDDSKSSVYLQMNSLRVEDTGIYYCTKLGRGYYVMDYWGQGTSVTVSS
VL: DIQMTQTTSSLSASLGDRVTLNCRASQDITNHLNWFQQKPDGTFQLLIYYTSRLHSGVPSRFSGSGSGTDYSLTISNLEQEDFATYFCQQDSQHPWTFGGGTKLEIK
notes: also called Chimeric mAb F19
- Kd [3]: 11.8 nM

B5: F20-H3L1 (antibody, V domains shown)
VH: QVQLVQSGAEVKKPGSSVKVSCKASGYTFASYYLYWVRQAPGQGLEWIGEINPRSGGTNFNEKFKSKATVTVDKSTNTAYMELSSLRSEDTAVYYCSRSGRLRGFYTMDYWGQGTLVTVSS
VL: DIVMTQSPDSLAVSLGERATINCKAGENVGSYVSWYQQKPGQPPKLLIYGASNRYTGVPDRFSGSGSATDFTLTISSLQAEDVAVYYCGQTYRFLTFGQGTKVEIK
notes: also called humanized F20 mAb H3L1
- EC50 (read off the curve) [5]: 1 to 2 nM

B6: F20-H1L1 (antibody, V domains shown)
VH: B5 VH with K67R, N77S
VL: B5 VL
notes: also called humanized F20 mAb H1L1
- EC50 (read off the curve) [5]: 1 to 2 nM

B7: F20-H3L2 (antibody, V domains shown)
VH: B5 VH
VL: B5 VL with P43S
notes: also called humanized F20 mAb H3L2
- EC50 (read off the curve) [5]: 1 to 2 nM

B8: F5-H2L1 (antibody, V domains shown)
VH: EVQLVESGGGLVQPGGSLRLSCAVSGFTFSNYGMSWVRQAPGKGLEWVATISSGGSYTYYPDSVKGRFTISRDNSKNTLYLQMNSLRAEDTAVYYCSTQGSSGYVGYWGQGTLVTVSS
VL: DIQMTQSPSSVSASVGDRVTITCKASQDITNFIGWYQHKPGKAPKLLISYTSILESGVPSRFSGSGSGRDYTLTISSLQPEDFATYYCLQYYNLWTFGGGTKVEIK
notes: also called humanized F5 mAb H2L1
- EC50 (read off the curve) [6]: ~0.3 nM

B9: F5-H3L2 (antibody, V domains shown)
VH: B8 VH with N84S
VL: B8 VL with R69T
notes: also called humanized F5 mAb H3L2
- binding result [7]: binds

B10: F5-H1L1 (antibody, V domains shown)
VH: B8 VH with V5L
VL: B8 VL
notes: also called humanized F5 mAb H1L1
- EC50 (read off the curve) [6]: ~0.4 nM

B11: F5-H3L1 (antibody, V domains shown)
VH: B8 VH with N84S
VL: B8 VL
notes: also called humanized F5 mAb H3L1
- binding result [7]: binds

B12: mouse anti-FOLR1 mAb F17 (purified from hybridoma supernatant) (antibody, V domains shown)
VH: DVQLVESGGGLVQPGGSRKLSCAASGFTFSDFGMHWIRQAPERGLEWVAYMSYTPGTFHYADTVKDRFFISRDNAKNTLFLQMTSLRSDDTAMYYCARVHVGTVDYWGQGTSVTVSS
VL: DVVLTQSPATLSVTPGDSVSLSCRASQNINNNLHWFQQKSHESPRLLIKYASQSISGIPSRFSGSGSGTDFTLSINNVETEDFGIYFCQQSNSWPALTFGTGTKVELK
notes: Mouse antibody from hybridoma, purified on Protein A, detected with anti-mouse IgG; also called mAb clone F17
- EC50 (read off the curve) [4]: ~0.3 µg/mL

B13: chimeric anti-FOLR1 mAb F7 (antibody, V domains shown)
VH: EFQLQQSGPELVKPGASVKISCKASGYSFTDYNMNWVKQSNGKSLEWIGVIDPNYGTTNYNQKFVGKATLTVDQSSITAYMQLNSLTAEDSAVYFCAIKGYGNPAAYWGQGTLVTVSA
VL: DIQMTQSPSSLSASLGGKVTITCKASQDINKYLAWYQHEPGKGPRLLIRYTSILESGIPSRFSGSGSGRDYSFSISNLEPEDIATYYCLQYYNLWTFGGGTKLEIK
notes: also called Chimeric mAb F7
- EC50 (read off the curve) [1]: ~0.1 nM
- EC50 (read off the curve) [2]: ~0.2 nM
- Kd [3]: 2.33 nM

B14: mouse anti-FOLR1 mAb F7 (purified from hybridoma supernatant) (antibody, V domains shown)
VH: B13 VH
VL: B13 VL
notes: Mouse antibody from hybridoma, purified on Protein A, detected with anti-mouse IgG; also called mAb clone F7
- EC50 (read off the curve) [4]: ~0.1 µg/mL

B15: mouse anti-FOLR1 mAb F8 (purified from hybridoma supernatant) (antibody, V domains shown)
VH: EVMLVESGGGLVKPGGSLKLSCVASGFTLSTYAMSWVRQTPEKRLEWVATISGGGGDTYHLDTVKGRFTISRDNAKNTLYLQMSSLRSEDTALYYCARQSHYGSSYYFDNWGQGTTLTVSS
VL: DIQMTQSPASLSASVGEIVTIICRVSENIDSYLAWYQQKQGKSPQLLVYAATNLADGVPSRFSGSGSGSQYSLKINSLQSEDVARYYCQHYYTTPPTFGGGTKLDIK
notes: Mouse antibody from hybridoma, purified on Protein A, detected with anti-mouse IgG; also called mAb clone F8
- EC50 (read off the curve) [4]: ~0.5 µg/mL

B16: chimeric anti-FOLR1 mAb F8 (antibody, V domains shown)
VH: B15 VH
VL: B15 VL
notes: also called Chimeric mAb F8
- Kd [3]: 0.721 nM
